How the values were obtained:
Type in all cases: in vivo, mouse
HFMCD-fed mice [1] = test: HFMCD NASH model, antibody from week 6 to 10; conditions: 10 mg/kg biweekly, four weeks of therapy from week 6
Protocol: FIGS. 20A to 20N. Therapeutic targeting of Il-11 inhibits and reverses NASH pathologies in preclinical models. (A) Schematic showing therapeutic use of X203 and X209 (10 mg/kg, biweekly) in HFMCD-fed mice for experiments shown in (B-E). X203, X209 or IgG isotype control were administered from week 6 to 10 of HFMCD diet. (B) Representative liver histological images (Masson's Trichrome staining; scale bars, 100 μm), (C) relative liver hydroxyproline content, (D) relative liver pro-inflammatory mRNA expression levels (n≥6/group) and (E) serum ALT levels. (F) Western blots of hepatic Erk activation status. (G) Schematic of X203 or IgG administration to MCD-fed db/db mice for experiments shown in H-N. Western blots of hepatic (H) Il-11 and Gapdh, (I) p-Erk and Erk. (J) Representative Masson's Trichrome images of liver from X203 or IgG-treated MCD-fed db/db mice (scale bars, 100 μm). The levels of (K) hepatic triglyceride, (L) relative liver hydroxyproline, (M) serum ALT, and (N) mRNA expression of liver pro-inflammatory markers (n≥5/group). (C-E,K-N) Data are shown as box-and-whisker with median (middle line), 25th-75th percentiles (box) and min-max percentiles (whiskers); two-tailed, Tukey-corrected Student's t-test. FC: fold change; NC: normal chow; HFMCD: high fat methionine- and choline-deficient; MCD: methionine- and choline-deficient.
High fat methionine and choline-deficient (HFMCD) diet fed wild-type mice Five week old male C57BL/6N mice were fed with Methionine and Choline deficient diet supplemented with 60 kcal % fat (A060713011316, Research Diets); control mice were fed with normal chow (NC, Specialty Feeds). Durations of diet and antibody therapies are described.
Mice were injected intraperitoneally with either antagonist anti-IL-11 antibody, antagonist anti-IL11RA antibody or an identical amount of IgG isotype control for the treatment durations outlined in the figures.

HFMCD-fed mice [2] = test: HFMCD diet model of cachexia-related weight loss
Source text: High fat methionine choline deficient diet (HFMCD) was used to establish cachexia-like metabolic disorder. In order to establish cachexia weight loss and lean mass loss, C57BL/6N mice were fed with methionine and choline deficient (HFMCD) diet supplemented with 60 kcal % fat (A06071301B, Research Diets).
Five-week old male mice were fed a methionine- and choline-deficient (MCD) diet with 60 kcal % fat (A06071301B, Research Diets), designated a high fat MCD (HFMCD) diet, which causes more severe NASH than an MCD diet alone. Control mice were fed with normal chow (NC; Specialty Feeds). Mice were intraperitoneally injected twice per week with 10 mg/kg of anti-IL-11 antibody or anti-IL-11 RA antibody, or identical concentration of IgG isotype control one week after they had received HFMCD for the same treatment duration. Body weight was measured weekly.
To investigate further the effect of inhibition of IL-11-mediated signalling with respect to cachexia, a range of doses of anti-IL-11 therapy were studied in the MCD model. Five-week old male mice were fed on the HFMCD or NC diet as before for one week to induce cachexia, resulting in a ˜15% loss in body weight in MCD mice. After the initial week, mice were intraperitoneally injected twice per week with 0.5, 1, 5 or 10 mg/kg of anti-IL-11 or anti-IL-11 RA antibody. Three antibodies were studied: two anti-IL-11 ((1) and (2)), and one anti-IL-11 RA. 10 mg/kg of IgG isotype antibody was used as a control.
Body weight and food consumption were measured weekly. For food consumption, average food intake was measured (g/mouse/week) in food hoppers from cages (n=3 mice per cage).

[3] = system: mice with UUO-induced kidney injury; test: Weight loss after UUO-induced acute kidney injury; conditions: 20 mg/kg 2×/week from day 4 post-UUO
Protocol: In further experiments, mice were subjected to unilateral ureter obstruction (UUO)-induced acute kidney injury. UUO surgeries were carried out on 12-week old mice. Briefly, mice were anesthetized by IP injection of ketamine (100 mg/kg)/xylazine (10 mg/kg) and full depth of anaesthesia was accessed with the pedal reflex. Mice were then shaved on the left side of the abdomen. A vertical incision was made through the skin with a scalpel, a second incision was made through the peritoneum to reveal the kidney. Using forceps, the kidney was brought to the surface and the ureter was tied with surgical silk, twice, below the kidney. The ligated kidney was placed gently back into its correct anatomical position and sterile saline was added to replenish loss of fluid. The incisions were then sutured. Animals were post-operatively treated with antibiotic enrofloxacin (15 mg/kg, SC) and analgesic buprenorphine (0.1 mg/kg, SC) for three consecutive days. Mice were sacrificed 10 days post-ligation. Mice were intraperitoneally injected with 20 mg/kg (2×/week) of anti-IL-11 antibody or identical concentration of IgG isotype control from day 4 post-surgery until the mice were sacrificed.

mice with PDL = test: Pancreatic duct ligation (PDL) model of pancreatic injury; conditions: 14 days
Source text: FIGS. 50A to 50C. Schematic, box plot and images relating to the effect of antagonism of IL-11 mediated signalling in a pancreatic duct ligation (PDL) model of pancreatic injury. (A) Schematic representation of experiment in which pancreatic injury is induced by PDL, and wherein mice are subsequently treated with neutralising anti-IL-11 RA antibody or IgG isotype control antibody. (B) Ligated lobe weight for mice treated with neutralising anti-IL-11 RA antibody or IgG isotype control antibody at 14 days. (C) Representative images of Masson's Trichrome staining of pancreatic tissue from mice treated with neutralising anti-IL-11 RA antibody or IgG isotype control antibody at 14 days.

[4] = 0.5, 1, 5 or 10 mg/kg twice per week

Molecule	Erk activation (liver) (HFMCD-fed mice [1])	liver damage (HFMCD-fed mice [1])	liver fibrosis (HFMCD-fed mice [1])	liver inflammation (HFMCD-fed mice [1])	steatosis (HFMCD-fed mice [1])	body weight (HFMCD-fed mice [2]; 10 mg/kg twice per week from week 1, listed as anti-IL-11, 10 mg/kg)	regain of body weight [3]	time to return to normal weight [3]	body weight (HFMCD-fed mice [2]; 10 mg/kg twice per week from week 1, listed as anti-IL-11 RA, 10 mg/kg)	body weight (HFMCD-fed mice [2]; 10 mg/kg twice per week from week 1, listed as anti-IL-11Rα, 10 mg/kg)	body weight (HFMCD-fed mice [2]; [4])	food consumption (HFMCD-fed mice [2]; [4])	pancreatic fibrosis (mice with PDL)	reduction in pancreatic tissue associated with PDL (mice with PDL)
X203: mouse anti-mouse IL-11 IgG (IgG1κ), neutralising; VH SEQ ID NO:22, VL SEQ ID NO:23 (antibody, V domains shown, Enx203 VH; Enx203 VL) VH: EVQLQQSGPELVKPGASVKIPCKASGYTFTDYNMDWVKQSHGKSLEWIGDINPHNGGPIYNQKFTGKATLTVDKSSSTAYMELRSLTSEDTAVYYCARGELGHWYFDVWGTGTTVTVSS VL: DIVLTQSPASLAVSLGQRATISCRASKSVSTSGYSYIHWYQQKPGQPPKLLIYLASNLDSGVPARFSGSGSGTDFTLNIHPVEEEDAATYYCQHSRDLPPTFGGGTKLEIK	abolished	inhibited or reversed	inhibited or reversed	inhibited or reversed	unchanged	quickly regained weight and returned to normal, or near-normal, weight by 5 weeks later	regained their body weight more quickly than those receiving IgG control	≤ 4 days						
X209: mouse anti-mouse IL-11Rα IgG (IgG1κ), neutralising; VH SEQ ID NO:24, VL SEQ ID NO:25 (antibody, V domains shown, Enx209 VH; Enx209 VL) VH: QVQLQQPGAELVRPGSSVKLSCKASGYTFTNYWMHWLKQRPVQGLEWIGNIGPSDSKTHYNQKFKDKATLTVDKSSSTAYMQLNSLTSEDSAVYYCARGDYVLFTYWGQGTLVTVSA VL: DIVLTQSPATLSLSPGERATLSCRASQSISNNLHWYQQKSHEAPRLLIKYASQSISGIPARFSGSGSGTDFTLSFSSLETEDFAVYFCQQSYSWPLTFGQGTKLEIK	abolished	inhibited or reversed	inhibited or reversed	inhibited or reversed	unchanged				quickly regained weight and returned to normal, or near-normal, weight by 5 weeks later	returned to normal or near-normal weight	most effective in reversing weight loss	greatest increase in food intake	reduced pancreatic fibrosis	inhibited
